This is an account of results in publication doi:10.1101/835280, “Bayesian Modeling Reveals Ultrasensitivity Underlying Metabolic Compensation in the Cyanobacterial Circadian Clock” (bioRxiv, 2019).

Data set [1] concerns the molecule itself. The data set is described as follows: SEC; size-exclusion chromatography on a Superdex 75 16/60 prep grade column, last step of the purification of the 15N-labelled KaiA domains. On the technique in general: SEC sorts molecules by how far they enter the pores of the column.
Another data set concerns the target T1, KaiA (Synechococcus elongatus PCC 7942, UniProt Q79PF6 1-284).
T1 construct: KaiA, circadian clock protein of Synechococcus elongatus PCC 7942; source: expressed and purified as previously described (Phong et al., 2013), anion exchange on HiTrap Q
T1 sequence (looked up): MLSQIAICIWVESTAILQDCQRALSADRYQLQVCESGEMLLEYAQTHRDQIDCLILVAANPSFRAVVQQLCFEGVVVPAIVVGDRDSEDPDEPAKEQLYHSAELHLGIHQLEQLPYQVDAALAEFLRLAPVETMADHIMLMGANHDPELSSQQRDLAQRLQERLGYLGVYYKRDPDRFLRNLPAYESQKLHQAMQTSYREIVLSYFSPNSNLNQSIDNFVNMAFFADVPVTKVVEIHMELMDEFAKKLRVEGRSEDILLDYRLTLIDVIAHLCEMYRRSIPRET
The data set is described as follows: co-IP; immunoprecipitation of KaiB-FLAG from an in vitro clock reaction of purified KaiA, KaiB-FLAG and KaiC (20 mM Tris-HCl pH 8, 150 mM NaCl, 5 mM MgCl2, 0.5 mM EDTA, 10% glycerol), time course; KaiA left in the supernatant read by SDS-PAGE (SYPRO Ruby) against 1.5 uM GFP as internal standard. The settings on record: both partners purified.

In general, stoichiometry N refers to a count of units in the complex or per binding partner.

B1: C-terminal domain of KaiA (residues 181-284) (domain or fragment, Synechococcus elongatus PCC 7942, UniProt Q79PF6 181-284, looked up)
chain: NLPAYESQKLHQAMQTSYREIVLSYFSPNSNLNQSIDNFVNMAFFADVPVTKVVEIHMELMDEFAKKLRVEGRSEDILLDYRLTLIDVIAHLCEMYRRSIPRET
notes: KaiA, Synechococcus elongatus PCC 7942, C-terminal domain, residues 181-284; U-[15N] labelled, grown in deuterated water; also called C-terminal KaiA; C-terminal fragment of KaiA; source: E. coli BL21(DE3), M9 medium with 15N-NH4Cl in 98% D2O, purified (Ni-NTA, SEC on Superdex 75)
On to B1, for which the “stoichiometry N” value in data set [1] was 2.

B2: KaiB-FLAG (natural protein, Synechococcus elongatus PCC 7942, UniProt Q79PF5 1-102, looked up)
chain: MSPRKTYILKLYVAGNTPNSVRALKTLKNILEVEFQGVYALKVIDVLKNPQLAEEDKILATPTLAKVLPLPVRRIIGDLSDREKVLIGLDLLYGELQDSDDF
notes: KaiB, circadian clock protein of Synechococcus elongatus PCC 7942; also called FLAG-tagged KaiB; source: expressed and purified as previously described (Phong et al., 2013), anion exchange on HiTrap Q
As to B2, the binding result with KaiA is recorded as “binds”.
